# Assay results: article doi:10.1101/2023.03.02.530905 (bioRxiv, 2023)
# Substitutions are numbered along the chain they refer to.
# B1: GM130 N122-oDi-his (other)
# chain: MWPPRFPPPRPGMSEETRQSKLAAAKKKLREYQQKNSPGVPAGAKKKKKIKNGHSPERTSASDCQSAENVPTDHTAPAPPSTAAATMFLGVVPSPDADLIQSHDAGNCSNLMEETKTFSSTEGEIAALKQEIAALKKENAALKFEIAALKQG
# B2: GM130 N122-oTet-his (other)
# chain: B1 chain with I125L, L128I, I132L, L135I, N139L, L142I, F144W, I146L, L149I
# Target: the molecule itself
# Experiment: cross-linking
row,Protein,stoichiometry N
1,B1,2
2,B2,4
